The chains are these.
B1: ADI-14393 (antibody, V domains shown)
VH: QVQLVESGGGLVKPGGSLRLSCAASGFSFTGFYMNWVRQAPGKGLEWVSSISSSSTYKNYADSLQGRFTISRDNARSSLYLQMNSLRAEDTAVYYCARTRTEYTYGYYHDFWGQGTLVTVSS
VL: QPVLTQPPSVSGAPGQRVTISCTGSSSNIGAGYDVHWYQQVPGTAPKLLIYNNNNRPSGVPDRFSGSKSGTSASLAITGLQAEDEADYYCQSYDSRLSGVFGGGTKLTVL
notes: also called Ab 60
B2: ADI-21053 (antibody, V domains shown)
VH: QVQLQESGPGLVKPSQTLSLTCTVSGVSISNSSGGYYWSWIRQHPGKGLEWIGYIYYSGSTYYNPSSGSTYYNPSLKSRVTVSVDTSKNQFSLKLTSVTAADTAVYYCARDIRGPHKHSLYNWFHPWGQGTLVTVSS
VL: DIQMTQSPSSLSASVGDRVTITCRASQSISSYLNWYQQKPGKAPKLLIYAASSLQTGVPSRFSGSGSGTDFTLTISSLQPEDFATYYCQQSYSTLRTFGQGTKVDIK
B3: ADI-14606 (antibody, V domains shown)
VH: QVQLVQSGGGLVQPGGSLRLSCAASGFTVSSNYMGWVRQAPGKGLEWVSVIYTGGSTYYADSVKGRFTISRDNFKNTLYLQMNSLRAEDTALYYCARDLYSSGWFGYWGQGTLVTVSS
VL: DIRLTQSPATLSVSPGERATLSCRASQSVSINLGWFQQKPGQSPRLLIYGTSTRATGIPARFSGSGSGTEFTLTISSLQSEDFAVYYCHQYNNWPYTFGQGTKVEIK
B4: ADI-14417 (antibody, V domains shown)
VH: EVQLVESGGGLVKPGGSLRLSCAASGFSFSSYSMHWVRQAPGKGLEWVSSISGSSTYIYHADSVKGRFTISRDNAERSLHLQMNSLRAEDTAVYYCARDPYSSGWLDSWGQGTLVTVSS
VL: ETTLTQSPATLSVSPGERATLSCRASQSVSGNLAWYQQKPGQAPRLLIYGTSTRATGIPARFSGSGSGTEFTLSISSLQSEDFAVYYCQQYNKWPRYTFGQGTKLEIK
notes: also called Ab 83
B5: ADI-14404 (antibody, V domains shown)
VH: EVQLVESGGGLVQPGGSLRLSCAASGFTFSNFEMNWVRQAPGKGLEWVSYISSSGRIIYYADSVKGRFTISRDNARNSLYVQMNSLRVEDTAVYYCARAKAAAGHDLWGQGTLVTVSS
VL: EIVLTQSPSTLSASVGDRVTITCRASQSISPWLAWYQQKPGKAPKLLIYRASSLESGVPSRFSGSGSGTEFTLTISSLQPDDFATYYCQHYNSYLYTFGQGTKVEIK
notes: also called Ab 70
B6: ADI-14405 (antibody, V domains shown)
VH: QVQLVQSGTEVKKPGASVKVSCKASGYTFTNYDISWVRQAPGQGLEWMGWISGSTGNTIYAQNLQGRLTMTTDTSTSTAYMELRSLRSDDTAIYYCARDNVGYASGNYFDYWGQGTLVTVSS
VL: SYVLTQPPSVSVAPGKTARIPCGGNNIGSKSVHWYQQRPGQAPVLVIYYDSVRPSGIPERFSGSNSGNTATLTISTVEAGDEADFYCQVWDSSRDHEVFGGGTKLTVL
notes: also called Ab 71
B7: ADI-14406 (antibody, V domains shown)
VH: QVQLVQSGAEVKKPGESLKISCKGSGYKFTNYWIAWVRQMPGKGLEWLGVIYPGASDITYSPSFQGQVTISADKSISTAYLQWSSLKASDTAIYYCARQGSITAMSYWGQGTMVTVSS
VL: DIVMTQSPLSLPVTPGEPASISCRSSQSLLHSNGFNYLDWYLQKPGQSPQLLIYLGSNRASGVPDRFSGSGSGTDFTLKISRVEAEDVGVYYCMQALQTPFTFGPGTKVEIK
notes: also called Ab 72
B8: ADI-21040 (antibody, V domains shown)
VH: EVQLLESGPGLVKPSGTPSLTCAVSGVSITNSNNWWTWVRQPPGKGLEWIGEIYSSGSTNYSPSLKSRVTISLDKSKNQFSLKLSSVTAADTAVYYCARVLGYYGSGGGHLHSWGPGTLVTVSS
VL: SYELTQPPSASGTPGQRVTISCSGSSSNIGAGYDVHWYQQLPGTAPKLLISVNSNRPSGVPDRFSGSKSGTSASLAITGLQAEDEANYYCQSYDNSLSGYVVFGGGTKLTVL
B9: ADI-21056 (antibody, V domains shown)
VH: EVQLLESGGGLVKPGGSLKLSCAASGFTLRSYYMHWVRQAPGRGLEWVSSISASSSYINYVDAVKGRFTVSRDNAKNSLFLQMNSLRAEDTAVYYCAREGGAMTNFGVVIDIWGQGTMVTVSS
VL: SYVLTQPPSVSGAPGQRVTISCTGSSSNIGAGYDVHWYQQLPGTAPKLLIYTNTNRPSGVPDRFSGSKSGTSASLAITGLQSDDEADYYCQSYDSSLSGPVVFGGGTKLTVL
B10: ADI-14598 (antibody, V domains shown)
VH: QVQLVQSGAEVKKPGSSVKVSCKASGGTFSSYAIYWVRQAPGQGLECMGGIIPIFGSANYAQKFQGRVTITADESTSTAYMELSSLRSEDTAVYYCATDSLKTTYYYGSSGYFRDHVWGQGTTVTVSS
VL: ETTLTQSPSSLSASVGDRVTITCRASQGISNYLAWYQQKPGKVPKLLIFAASTLQSGVPSRFSGSGSGTDFTLTISSLQPEDVATYYCQNFNSVLSFTFGPGTKVDIK
B11: ADI-20997 (antibody, V domains shown)
VH: EVQLVESGGGVVQPGRSLRLSCAASGFPFNSYGMHWVRQAPGKGLEWLAVIYFDESTAYYADSVKGRFTISRDNSKSTLYLQMNSLRAADTAIYYCTTTVMIPYGGVFWGQGTLVTVSS
VL: EIVMTQSPGTLSLSPGDRATLSCRASQSVGSTHFAWYQQKPGQAPRLLIYAASIRATGIPDRFSGGGSGTDFTLTISRLAPEDFAVYYCQQYGSTPITFGQGTRLEIK
B12: ADI-14605 (antibody, V domains shown)
VH: EVQLLESGPALVKPTQTLTLTCTFSGFSLTTSGMCVSWIRQPPGKALEWLARIDWDDDQYFSTSLRTRLSISKDTSKNQVVLTMTNMDPVDTATYYCARSALNIAARGFDIWGQGTTVTVSS
VL: QPGLTQPPSVSVSPGQTARITCSGDVLPKHFSYWYQQKPGQAPVLVIHRDSERPSGIPERFSGSSSGTTVTLTISGVQAEDEADYYCQFSDITNTVFGGGTKLTVL
B13: ADI-41662 (antibody, V domains shown)
VH: QVQLVQSGAEVKKAGESLKISCKGPRHSFTSYWIGWVRQMPGKGLEWMASIYPGDSDSRYSPSFEGQVTISADKSIDTAFLQWSSLKASDTAMYFCARYVGAVPGGNWYFDLWGRGTLVTVSS
VL: SYELIQLPSVSVSPGQTARITCSGDALPKKYAYWYQQKSGQAPVLVIYDDNKRPSGIPARFSGSSSGTMATLTISGAQVEDEGDYYCYSTDSTGDHRGVFGGGTKLTVL
B14: ADI-41664 (antibody, V domains shown)
VH: EVQLVQSGDEVKKPGASVKVSCKASGYPFSTYGISWVRQAPGQGLEWMGWIGVYTGGTNYAQKFQGRVTLTTDTSTSTAYMELRSLRSDDTAVYYCARGTGSYMTATYFDYWGQGTLVTVSS
VL: SYELTQPPSVSVAPGQTARITCGGNNIGSKAVHWYQQKPGQAPVLVVYDDYDRPSGIPERFSGSNSGNTATLTISRVEAGDEADYYCQVWDSSSDYVFGTGTKLTVL
notes: also called Ab 890; Antibody Number 890

The target of the first assay is RSV prefusion F (preF), subtype A (respiratory syncytial virus, subtype A, UniProt P03420 26-513). Put plainly: BLI, IgG. On the technique in general: BLI is a label-free optical method that tracks binding on a fibre tip over time.
One may read the Kd as the equilibrium constant for the complex coming apart. Low readings indicate higher affinity, high ones lower affinity. Consider B1, for which the equilibrium dissociation constant (Kd) was 0.311 nM.
On the same count and under the same terms, then B2, with 71 nM.
Take B3: the binding result is reported as “no binding”.
On the same count and under the same terms, under B4 stands “no binding”; under B5, “no binding”.
B6 gave a Kd of 0.142 nM.
In the case of B7, the affinity, expressed as Kd, was 6.85 nM.
Regarding B8, the binding result is given as “no binding”.

For a further assay, the target named is RSV prefusion F (preF), subtype B (respiratory syncytial virus, subtype B). The experiment in a line: BLI, IgG.
For the molecule B9, the Kd turned out to be 0.223 nM.
For B1, the dissociation constant (Kd) was determined as 0.474 nM.
Same read-out and setting: under B10 stands 7.07 nM; under B11, 3.09 nM; under B12, 2.72 nM.
The same measure, in the same setting: then B6, with 0.227 nM; and B7, with 0.906 nM.

In another assay the target is T1, RSV postfusion F (postF), subtype B (respiratory syncytial virus, subtype B).
T1 construct: also called F ΔFP; Postfusion subtype B
Put plainly: BLI, IgG.
Molecule B9 returned an equilibrium dissociation constant (Kd) of 63.4 nM.
Molecule B1 registered a Kd of 11.7 nM.
Same read-out and setting: under B10 stands 4.81 nM.
As to B2, binding was characterised by a dissociation constant (Kd) of 118 nM.
On the same count and under the same terms, under B11 stands 0.609 nM; under B3, 0.659 nM.
On the same count and under the same terms, then B4, with 3.99 nM; and B12, with 0.399 nM.
The same measure, in the same setting: under B5 stands 0.498 nM; under B6, 38 nM; under B7, 0.473 nM.
Molecule B8 returned a Kd of 1.03 nM.

A further assay concerns the target T2, RSV postfusion F (postF), subtype A (respiratory syncytial virus, subtype A, UniProt P03420 26-513).
T2 construct: also called F ΔFP; Postfusion subtype A
The experiment in a line: BLI, IgG.
In the case of B1, the binding result was “no binding”.
The molecule B10 gave a dissociation constant (Kd) of 0.452 nM.
Still for that read-out and setting: under B2 stands 6.37 nM; under B3, 1.28 nM.
On the same count and under the same terms, then B4, with 1.63 nM.
The same measure, in the same setting: then B5, with 0.627 nM.
The molecule B6 showed a Kd of 11.7 nM.
The same measure, in the same setting: under B7 stands 0.339 nM.
On the same count and under the same terms, then B8, with 0.777 nM.

The target in the next assay is RSV F on RSV-A2 virus (Respiratory syncytial virus, RSV-A2, UniProt P03420 26-574). Put plainly: cell-based or functional assay.
Take B13: the “Neutralization IC50 (RSV subtype A)” value is over 25 µg/mL.
For the molecule B14, the “Neutralization IC50 (RSV subtype A)” value is over 25 µg/mL.

A further assay has as its target RSV prefusion F (preF), DS-Cav1 (Respiratory syncytial virus, UniProt P03420 26-513). The experiment in a line: BLI, IgG on anti-human IgG sensor, 100 nM antigen.
Take B13: the Kd was 5.24 nM.
On the same count and under the same terms, under B14 stands 2.94 nM.

A further assay concerns the target RSV postfusion F (postF), F ΔFP (Respiratory syncytial virus, UniProt P03420 26-513). The experiment in a line: BLI, IgG on anti-human IgG sensor, 100 nM antigen.
The molecule B13 yielded a dissociation constant (Kd) of 1.21 nM.
With B14, the Kd came out at 0.825 nM.

The record behind these values is patent publication US20260258115A1 (MAPP BIOPHARMACEUTICAL, published 2026).
